Substrate: Nc1ncnc2c1ncn2[C@@H]1O[C@H](COP(=O)(O)OP(=O)(O)OP(=O)(O)O)[C@@H](O)[C@H]1O
Assay: PtdIns 4-kinase activity assay: kinetic parameters, specific activity, pH optimum
Assay type: biochemical, bovine
Conditions: other: purified enzyme, pH 7.4 (Tris-HCl), double-reciprocal plot, 30.0 °C
Protocol: PtdIns 4-kinase activity was assayed in 60 μl at 30° C. in 20 mM BisTris-HCl (pH 7.0), 10 mM MgCl2, 1.0% Triton X-100, 0.25 mg/ml phosphatidylinositol, and 150 μM ATP (1.25 μCi[-^32 P]ATP), unless otherwise noted. The reaction was terminated by the addition of 12 μl of cold HCl, 120 μl of cold methanol, 150 μl of chloroform, and 40 μl of H2 O. The extracted samples were centrifuged at 12,000 × g for 1 min. and the aqueous layer removed and discarded. When needed, the organic phase was washed with 40 μl of cold methanol and 40 μl of cold 1.0 N HCl, centrifuged at 12,000 × g, and the aqueous layer was removed. The organic phase was then dried under vacuum in a Savant speed-vac, resuspended in 40 μl of chloroform/methanol (2:1), and chromatographed on potassium oxalate-impregnated Silica Gel 60 thin layer chromatography plates (TLC). The solvent system used consisted of chloroform/methanol/ammonium hydroxide/water (51:39.6:3:8.4). […] The reaction product, phosphatidylinositol 4-phosphate, was visualized by autoradiography, and the corresponding area of the TLC plate was scraped and quantitated by Cherenkov counting. […]
In order to optimize the assay of this enzyme, the pH optimum for Ptdlns 4-kinase was determined. […]

B1: PtdIns 4-kinase (Bos taurus) (protein)
chain: MDETSPLVSPERAQPPDYTFPSGSSAHFPQVPGGAVRVAAAAGPVSSPPGSPGHDRERQPLLDRARGAAAQGQTQTVAAQAQALAAQAAAAAHAAQAHRERNEFPEDPEFEAVVRQAELAIERGIFPERIYQGSSGSYFVKDPQGKIIAVFKPKNEEPYGQLNPKWTKWLQKLCCPCCFGRDCLVLNQGYLSEAGASLVDQKLELNIVPRTKVVYLASETFNYSAIDRVKSRGKRLALEKVPKVGQRFNRIGLPPKVGSFQLFVESYKDADYWLRRFEAEPLPENTNRQLLLQFERLVVLDYIIRNTDRGNDNWLIKYDCPMDSSNSRDTDWVVVKEPVIKVAAIDNGLAFPLKHPDSWRAYPFYWAWLPQAKVPFSQEIKDLILPKISDPNFVKDLEEDLYELFKKDPGFDRGQFHKQIAVMRGQILNLTQALKDNKCPLHLVQMPPVIVETARSHQRSSSESYTQSFQSRKPFFSWW
notes: It constitutes the major PtdIns 4-kinase activity of bovine uteri; from tissue; host or cells: bovine uterus (acetone powder, purified over ammonium sulfate, Mono Q, S-Sepharose, Mono Q, Mono P and hydroxylapatite)
**Q.** For B1, which Km is on record?
**A.** 18 µM
